One substance from article PMC2956136 can be followed below.

The target in this assay is GST-RanQ69LGTP (UniProt P62826). The experiment in a line: SPR. A general note: In SPR one partner is held on a chip, and binding of the other changes the refractive index at the surface.

For “importin β (from UniProt Q14974 1-876) (natural protein; other documents disagree on this pair)”, the drop in response units with 5 μM Iβ1A against the DMSO control stood at 70%.
